Source: patent US20250340608A1 (PROTAGONIST THERAPEUTICS, published 2025)
Numbered stars: 1 amine (or outer) side, 2 acyl side, 3 side chain; on linkers, the order of the positions; unused ones are H or OH. Bridge positions count the residues as written; N and C are the ends. Square brackets hold non-standard residues; d marks the D form. Side chains are listed from the residue outwards. Ends that are not written are not given here. * marks the point of attachment. Ida = iminodiacetic acid, O=C(CN(CC(=O)[*:3])[*:1])[*:2]; γGlu = O=C(O)[C@H](CCC(=O)[*:2])N[*:1]; Palmitoyl = CCCCCCCCCCCCCCCC(=O)*; Myristoyl = CCCCCCCCCCCCCC(=O)*; Isovaleryl = CC(C)CC(=O)*; Octanoyl = CCCCCCCC(=O)*; Albu = not defined here; dapa = not defined here

T1: human ferroportin (SLC40A1) fused in frame with GFP, stably expressed in HEK293 cells (human, UniProt Q9NP59 1-571)
T1 sequence (looked up): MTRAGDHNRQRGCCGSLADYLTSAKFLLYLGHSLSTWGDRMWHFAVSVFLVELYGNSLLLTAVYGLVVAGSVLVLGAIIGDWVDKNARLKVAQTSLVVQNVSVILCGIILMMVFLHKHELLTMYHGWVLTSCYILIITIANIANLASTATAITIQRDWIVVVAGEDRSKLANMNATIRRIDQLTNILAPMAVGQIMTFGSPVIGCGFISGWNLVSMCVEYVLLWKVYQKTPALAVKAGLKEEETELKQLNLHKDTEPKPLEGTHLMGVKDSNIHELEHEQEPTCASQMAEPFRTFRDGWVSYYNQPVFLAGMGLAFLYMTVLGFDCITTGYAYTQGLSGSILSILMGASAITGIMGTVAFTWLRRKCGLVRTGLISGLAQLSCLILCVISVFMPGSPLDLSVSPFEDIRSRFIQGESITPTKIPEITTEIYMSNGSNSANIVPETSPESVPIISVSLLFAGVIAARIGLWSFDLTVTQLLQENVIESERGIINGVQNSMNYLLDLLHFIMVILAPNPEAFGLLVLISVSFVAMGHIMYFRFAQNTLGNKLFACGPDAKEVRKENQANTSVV

T2: human ferroportin (SLC40A1) fused in frame with GFP, stably expressed in HEK293 cells (human, UniProt Q9NP59 1-571)
T2 sequence (looked up): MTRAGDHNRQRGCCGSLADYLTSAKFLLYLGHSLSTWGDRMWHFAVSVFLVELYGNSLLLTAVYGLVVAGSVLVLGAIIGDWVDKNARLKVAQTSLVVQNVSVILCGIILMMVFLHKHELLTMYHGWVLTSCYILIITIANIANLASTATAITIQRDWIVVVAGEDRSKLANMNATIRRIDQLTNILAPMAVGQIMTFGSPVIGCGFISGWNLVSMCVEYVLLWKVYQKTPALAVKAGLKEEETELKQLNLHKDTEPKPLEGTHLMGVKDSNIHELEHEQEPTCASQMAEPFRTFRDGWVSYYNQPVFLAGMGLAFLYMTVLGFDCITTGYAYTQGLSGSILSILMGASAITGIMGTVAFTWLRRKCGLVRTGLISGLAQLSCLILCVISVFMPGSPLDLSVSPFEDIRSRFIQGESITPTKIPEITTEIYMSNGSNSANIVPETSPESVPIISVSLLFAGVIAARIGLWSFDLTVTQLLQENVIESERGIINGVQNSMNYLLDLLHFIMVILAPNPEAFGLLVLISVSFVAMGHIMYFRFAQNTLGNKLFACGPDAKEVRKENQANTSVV


What follows are binders tested against T1, human ferroportin (SLC40A1) fused in … (assay: cell-based or functional assay).

Potency EC50	Potency EC50 (nM)	Binder
7 nM	–	DTHFPCIKFKPRSKGWVC (N-terminal isovaleric acid; K10(mysteric acid); C-terminal NH2) [Compound 247]
10 nM	–	Isovaleryl-DTHFPCIKFEPK([dapa-Palmitoyl])SKGCK-NH2 (not fully specified (bridges); cysteine pairing not given here; reading uncertain) [Compound 227]
4 nM	–	Isovaleryl-DTHFPCIKFEPRSKK([γGlu-Palmitoyl])CK-NH2 (not fully specified (bridges); cysteine pairing not given here) [Compound 222]
4 nM	–	DTHFPCIKFEPRSKGCKK (not fully specified; N-terminal isovaleric acid; K18(isoglu-Palm); C-terminal NH2) [Compound 224]
20 nM	–	[Ida]THFPCIKFEPRSKGWVCK(Myristoyl)-NH2 (disulfide 6-18 (inferred)) [Compound 254]
–	> 1000 nM	Isovaleryl-DTAFPCIKFEPRSKEC-NH2 (disulfide 6-16 (inferred)) [Compound 267]
–	> 1000 nM	H-ATHFPCIIF-NH2 [Compound 284]
–	> 1000 nM	H-DTHFPCAIF-NH2 [Compound 279]
60 nM	–	Isovaleryl-ATHFPCIKFGPRSKGWVCK-NH2 (not fully specified (bridges); cysteine pairing not given here) [Compound 234]
5 nM	–	Isovaleryl-DTHFPCIKFEPK([γGlu-Palmitoyl])SKGCK-NH2 (not fully specified (bridges); cysteine pairing not given here) [Compound 220]
10 nM	–	DTHFPCIKFKPRSKGWVC (N-terminal isovaleric acid; K10(lauric acid); C-terminal NH2) [Compound 248]
–	> 1000 nM	H-DTHFACIIF-NH2 [Compound 280]
10 nM	–	Isovaleryl-DTHFPCIKFEPRSKGCK([dapa-Palmitoyl])K-NH2 (not fully specified (bridges); cysteine pairing not given here; reading uncertain) [Compound 230]
> 300 nM	–	Isovaleryl-HFPCIKFEPRSKGWVCK(Octanoyl)-NH2 (disulfide 4-16 (inferred)) [Compound 261]
> 500 nM	–	Isovaleryl-DTHAPCIKFGPRSKGWVCK-NH2 (not fully specified (bridges); cysteine pairing not given here) [Compound 236]
30 nM	–	DTHFPCIKFKPRSKGWVC (N-terminal isovaleric acid; K10(octanoic acid); C-terminal NH2) [Compound 250]
6 nM	–	DTHFPCIKFKPRSKGWECK (not fully specified; N-terminal isovaleric acid; K10(isoGlu-Palm); C-terminal NH2) [Compound 241]
8 nM	–	Isovaleryl-DTHFPCIKFEPK([γGlu-Palmitoyl])SKGWECK-NH2 (not fully specified (bridges); cysteine pairing not given here) [Compound 242]
6 nM	–	Isovaleryl-DTHFPCIKFEPHSK(Albu)GCK-NH2 (disulfide 6-16 (inferred); reading uncertain) [Compound 265]
7 nM	–	Isovaleryl-DTHFPCIKFEPRSK([dapa-Palmitoyl])GCK-NH2 (not fully specified (bridges); cysteine pairing not given here; reading uncertain) [Compound 228]
17 nM	–	Isovaleryl-DTHFPCIK([dapa-Palmitoyl])FEPRSKGCK-NH2 (not fully specified (bridges); cysteine pairing not given here; reading uncertain) [Compound 225]
50 nM	–	Isovaleryl-DTHFPCIKAGPRSKGWVCK-NH2 (not fully specified (bridges); cysteine pairing not given here) [Compound 237]
739 nM	–	H-DTAFPCIIF-NH2 [Compound 283]
–	> 1000 nM	H-DTHFPCIIA-NH2 [Compound 278]

What follows are binders tested against T2, human ferroportin (SLC40A1) fused in … (assay: cell-based or functional assay).

Potency EC50	Potency EC50 (nM)	Binder
313 nM	–	H-DTHFPICIFGPRSKGWACM-NH2 (cysteine pairing not given here) [Compound 47]
175 nM	–	H-DTHFPICIFGPRSKAWVCM-NH2 (cysteine pairing not given here) [Compound 31]
441 nM	–	H-DTHFPCIFF-NH2 [Compound 56]
9 nM	–	Isovaleryl-DTHFPCIIFGPRSKGWVCK-NH2 (not fully specified (bridges); cysteine pairing not given here) [Compound 11]
388 nM	–	H-DAHFPCIIF-NH2 [Compound 52]
88 nM	–	H-DTHFPICIFGPRAKGWVCM-NH2 (cysteine pairing not given here) [Compound 28]
498 nM	–	H-DTAFPICIFGPRSKGWVCM-NH2 (cysteine pairing not given here) [Compound 60]
254 nM	–	H-DTHAPICIFGPRSKGWVCM-NH2 (cysteine pairing not given here) [Compound 38]
206 nM	–	H-DTHFPICIFGPASKGWVCM-NH2 (cysteine pairing not given here) [Compound 34]
88 nM	–	H-DTHFPICIFGPRAKGWVCM-NH2 (cysteine pairing not given here) [Compound 16]
9430 nM	–	H-DTHFPICIFAPRSKGWVCM-NH2 (cysteine pairing not given here) [Compound 22]
125 nM	–	H-DTHFPICIFGPRSKGWVCM-NH2 (not fully specified (bridges); cysteine pairing not given here) [Compound 18]
419 nM	–	H-DTHFPCIIFK-NH2 [Compound 55]
520 nM	–	H-DTHFPICIFGPRSKGAVCM-NH2 (cysteine pairing not given here) [Compound 66]
46 nM	–	H-DTHFPCIIFGPRSKGWVCM-NH2 (cysteine pairing not given here) [Compound 21]
184 nM	–	H-ATHFPICIFGPRSKGWVCM-NH2 (cysteine pairing not given here) [Compound 33]
147 nM	–	H-DTHFAICIFGPRSKGWVCM-NH2 (cysteine pairing not given here) [Compound 26]
–	> 10000 nM	H-DTHFPICAFGPRSKGWVCM-NH2 (cysteine pairing not given here) [Compound 68]
149 nM	–	H-DTHFPICIFGPHRSKGWVCM-NH2 (cysteine pairing not given here) [Compound 27]
382 nM	–	H-DTHFPCIAF-NH2 [Compound 51]
2470 nM	–	H-DTHFPICIAGPRSKGWVCM-NH2 (cysteine pairing not given here) [Compound 67]
